Data taken from US20150368316A1 (ALBERT EINSTEIN COLLEGE OF MEDICINE OF YESHIVA UNIVERSITY, published 2015).

T1: human PD-L2-Ig (immobilized) (human, UniProt Q9BQ51 20-219)
T1 construct: also called huPD-L2; huPD-L2-Ig; not shown: Ig part of the fusion
T1 sequence (looked up): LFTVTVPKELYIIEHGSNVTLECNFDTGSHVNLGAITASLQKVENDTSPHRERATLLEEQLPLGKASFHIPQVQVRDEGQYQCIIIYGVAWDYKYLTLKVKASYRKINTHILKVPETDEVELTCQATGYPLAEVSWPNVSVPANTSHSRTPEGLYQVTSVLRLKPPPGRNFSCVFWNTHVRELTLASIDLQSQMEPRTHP

T2: mouse PD-L2-Ig (mouse, UniProt Q9WUL5 20-219)
T2 construct: also called mPD-L2-Ig; not shown: Ig part of the fusion
T2 sequence (looked up): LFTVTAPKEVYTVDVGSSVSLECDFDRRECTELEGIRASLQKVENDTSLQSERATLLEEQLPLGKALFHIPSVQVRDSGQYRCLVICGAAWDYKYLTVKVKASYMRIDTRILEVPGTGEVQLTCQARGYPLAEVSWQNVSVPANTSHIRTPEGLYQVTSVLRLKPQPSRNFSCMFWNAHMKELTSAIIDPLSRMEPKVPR


Experiments:
Test in all cases: Kd from fitting (SPR)
[1] = biological target: T1, human PD-L2-Ig (immobilized)
[2] = biological target: T3, human PD-L1-Ig (immobilized) (human, UniProt Q9NZQ7 19-238)
T3 construct: also called huPD-L1; huPD-L1-Ig; not shown: Ig part of the fusion
T3 sequence (Q9NZQ7 19-238): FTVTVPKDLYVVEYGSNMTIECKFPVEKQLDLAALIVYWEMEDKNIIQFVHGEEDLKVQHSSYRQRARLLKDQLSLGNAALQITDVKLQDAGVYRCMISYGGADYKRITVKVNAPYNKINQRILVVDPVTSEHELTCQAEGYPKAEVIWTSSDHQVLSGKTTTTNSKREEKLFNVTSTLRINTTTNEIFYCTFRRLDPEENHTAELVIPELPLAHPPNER

[3] = biological target: T2, mouse PD-L2-Ig
[4] = biological target: T4, mouse PD-L1-Ig (mouse, UniProt Q9EP73 19-238)
T4 construct: also called mPD-L1-Ig; not shown: Ig part of the fusion
T4 sequence (Q9EP73 19-238): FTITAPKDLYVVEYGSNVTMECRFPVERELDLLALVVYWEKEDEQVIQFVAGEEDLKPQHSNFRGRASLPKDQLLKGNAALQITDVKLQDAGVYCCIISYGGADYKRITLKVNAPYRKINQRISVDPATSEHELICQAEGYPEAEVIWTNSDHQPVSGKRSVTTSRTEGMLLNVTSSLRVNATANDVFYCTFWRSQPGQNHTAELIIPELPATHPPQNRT

Binder | Kd [1] [nM] | Kd [2] [nM] | Kd [3] [nM] | Kd [4] [nM]
mouse PD-1 (wild type) (receptor, UniProt Q02242 34-150, looked up, also called m PD-1) SLTFYPAWLTVSEGANATFTCSLSNWSEDLMLNWNRLSPSNQTEKQAAFCNGLSQPVQDARFQIIQLPNRHDFHMNILDTRRNDSGIYLCGAISLHPKAKIEESPGAELVVTERILE | 10700 | 4020 | 2800 | –
mouse HA PD-1 (high-affinity mutant) (receptor, UniProt Q02242 34-150, looked up, also called m HA PD-1) SLTFYPAWLTVSEGANATFTCSLSNWSEDLMLNWNRLSPSNQTEKQAAFCNGLSQPVQDARFQIIQLPNRHDFHMNILDTRRNDSGIYLCGAISLHPKLKIEESPGAELVVTERILE | 1180 | 480 | 470 | 2780
